Laboratory results reported in patent US12528864 (GlaxoSmithKline, dated 2026).

Tests used:
[1] = molecular target: T1, recombinant human TIGIT (human, UniProt Q495A1 22-141); experiment: surface plasmon resonance (SPR)
T1 sequence (looked up): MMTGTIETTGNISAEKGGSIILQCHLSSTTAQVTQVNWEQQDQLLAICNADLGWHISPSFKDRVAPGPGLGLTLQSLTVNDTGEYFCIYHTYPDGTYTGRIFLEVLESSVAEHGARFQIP

[2] = molecular target: T2, recombinant human nectin-1 (human, UniProt Q15223 31-334, limits assumed); experiment: surface plasmon resonance (SPR)
T2 sequence (looked up): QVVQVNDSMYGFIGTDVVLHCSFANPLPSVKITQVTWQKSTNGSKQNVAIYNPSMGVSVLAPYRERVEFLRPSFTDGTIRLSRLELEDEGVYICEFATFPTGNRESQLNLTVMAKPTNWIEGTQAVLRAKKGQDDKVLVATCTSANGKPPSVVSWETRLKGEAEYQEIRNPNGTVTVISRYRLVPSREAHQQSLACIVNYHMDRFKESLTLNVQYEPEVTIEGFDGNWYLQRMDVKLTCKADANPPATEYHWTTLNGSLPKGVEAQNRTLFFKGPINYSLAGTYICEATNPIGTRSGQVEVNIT

[3] = molecular target: T3, recombinant human CD96v2 (human, UniProt P40200-2 22-503, limits assumed, biotinylated (site not stated)); experiment: MSD solution equilibrium titration (MSD-SET), 25 C
T3 construct: Soluble recombinant protein used in MSD-SET; also called Biotinylated human CD96 protein
T3 sequence (looked up): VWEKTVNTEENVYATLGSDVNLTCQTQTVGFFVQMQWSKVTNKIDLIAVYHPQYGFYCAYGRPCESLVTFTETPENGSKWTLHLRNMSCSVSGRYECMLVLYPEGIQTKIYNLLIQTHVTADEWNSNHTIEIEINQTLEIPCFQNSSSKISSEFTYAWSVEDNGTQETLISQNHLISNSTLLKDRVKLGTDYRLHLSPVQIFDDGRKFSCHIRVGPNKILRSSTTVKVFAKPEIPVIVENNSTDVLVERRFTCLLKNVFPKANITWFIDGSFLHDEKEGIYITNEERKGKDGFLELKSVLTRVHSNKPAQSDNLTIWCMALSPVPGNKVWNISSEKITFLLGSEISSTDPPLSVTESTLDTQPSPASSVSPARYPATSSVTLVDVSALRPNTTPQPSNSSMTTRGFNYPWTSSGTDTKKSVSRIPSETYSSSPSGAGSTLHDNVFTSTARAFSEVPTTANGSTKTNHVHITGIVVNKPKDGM

[4] = molecular target: T4, recombinant cynomolgus monkey CD96v2 (cynomolgus monkey, UniProt A0A2K5TWV6 22-487, biotinylated (site not stated)); experiment: MSD solution equilibrium titration (MSD-SET), 25 C
T4 construct: Soluble recombinant protein used in MSD-SET; also called cynomolgus monkey biotinylated CD96 protein
T4 sequence: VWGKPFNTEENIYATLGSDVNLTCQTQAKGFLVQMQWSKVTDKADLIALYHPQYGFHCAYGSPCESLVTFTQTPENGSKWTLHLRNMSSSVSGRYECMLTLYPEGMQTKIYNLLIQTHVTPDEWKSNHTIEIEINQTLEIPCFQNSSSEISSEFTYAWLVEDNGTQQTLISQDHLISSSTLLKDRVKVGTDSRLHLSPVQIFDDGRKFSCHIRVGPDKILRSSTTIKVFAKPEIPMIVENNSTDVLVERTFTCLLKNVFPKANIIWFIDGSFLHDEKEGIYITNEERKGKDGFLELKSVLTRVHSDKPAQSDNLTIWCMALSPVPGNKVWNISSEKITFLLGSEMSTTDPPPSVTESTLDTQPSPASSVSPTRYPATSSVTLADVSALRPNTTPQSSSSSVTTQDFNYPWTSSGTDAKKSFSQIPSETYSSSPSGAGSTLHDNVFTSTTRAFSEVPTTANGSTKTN

[5] = molecular target: T5, recombinant murine CD96v2 (mouse, UniProt Q3U0X8 22-536, limits assumed); experiment: MSD solution equilibrium titration (MSD-SET), 25 C
T5 construct: Soluble recombinant protein used in MSD-SET; also called mouse CD96
T5 sequence (looked up): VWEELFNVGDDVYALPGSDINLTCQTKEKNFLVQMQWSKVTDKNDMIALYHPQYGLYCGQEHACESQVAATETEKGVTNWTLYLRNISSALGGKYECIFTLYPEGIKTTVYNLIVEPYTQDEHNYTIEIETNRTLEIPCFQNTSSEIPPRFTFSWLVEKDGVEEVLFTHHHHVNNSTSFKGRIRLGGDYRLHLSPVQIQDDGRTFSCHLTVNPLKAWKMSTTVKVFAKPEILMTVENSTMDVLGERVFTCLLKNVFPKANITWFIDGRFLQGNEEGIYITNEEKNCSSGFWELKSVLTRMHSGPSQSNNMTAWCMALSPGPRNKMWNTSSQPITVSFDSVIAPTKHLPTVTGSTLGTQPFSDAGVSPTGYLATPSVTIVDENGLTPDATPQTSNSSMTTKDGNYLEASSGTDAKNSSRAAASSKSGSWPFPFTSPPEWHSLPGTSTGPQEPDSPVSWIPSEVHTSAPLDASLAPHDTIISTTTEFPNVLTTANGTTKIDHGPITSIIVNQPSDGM

[6] = molecular target: T5, recombinant murine CD96v2; experiment: MSD-SET solution equilibrium titration, antibody titrated against constant CD96, free antigen detected
[7] = molecular target: T6, human CD96v2 expressed on cells (CHO cells; transiently transfected HEK cells) (human, UniProt P40200-2 22-569); experiment: flow cytometry, inhibition of human CD155-Fc-AF647 binding to CHO cells expressing human CD96v2; competitor CD155-Fc
T6 construct: whole, on cells; the cell is named under assay; also called CHO-huCD96; hCD96v2
T6 sequence (looked up): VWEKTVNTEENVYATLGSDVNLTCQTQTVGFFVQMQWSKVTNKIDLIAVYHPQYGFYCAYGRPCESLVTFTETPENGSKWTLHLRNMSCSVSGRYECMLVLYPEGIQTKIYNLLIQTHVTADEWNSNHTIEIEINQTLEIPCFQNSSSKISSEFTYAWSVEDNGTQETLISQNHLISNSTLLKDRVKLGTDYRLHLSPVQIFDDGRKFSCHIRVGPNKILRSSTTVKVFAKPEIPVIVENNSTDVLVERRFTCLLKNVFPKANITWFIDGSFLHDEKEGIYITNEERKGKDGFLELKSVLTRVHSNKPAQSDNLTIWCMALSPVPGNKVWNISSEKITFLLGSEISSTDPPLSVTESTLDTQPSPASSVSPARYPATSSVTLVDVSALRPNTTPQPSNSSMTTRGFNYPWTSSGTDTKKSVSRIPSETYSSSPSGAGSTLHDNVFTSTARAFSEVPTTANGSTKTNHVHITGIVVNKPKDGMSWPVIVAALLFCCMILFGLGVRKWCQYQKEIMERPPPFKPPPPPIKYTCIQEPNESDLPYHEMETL

B1: 42Y073-86F08-66 (antibody)
heavy: not shown
light: DIQLTQSPSSLSASVGDRVTITCRASQSISSYLNWYQQKPGKAPKLLIYAASSLQSGVPSRFSGSGSGTDFTLTISSLQPEDFATYYCQQVLHTITFGGGTKVEIKRTVAAPSVFIFPPSDEQLKSGTASVVCLLNNFYPREAKVQWKVDNALQSGNSQESVTEQDSKDSTYSLSSTLTLSKADYEKHKVYACEVTHQGLSSPVTKSFNRGEC
notes: also called GSK 6097608; GSK6097608
binding result [1]: no binding
binding result [2]: no binding
Kd [3]: 0.02 nM
Kd [4]: 0.278 nM
Kd [5]: 0.479 nM
IC50 (read off the curve) [6]: ~0.5 nM
IC50 [7]: 1.55 nM
